The nature of this data set: label from the status in PepcDB records.
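Also: failed if final PepcDB status was selected cloned or expressed and not failed if soluble or beyond.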

Regarding “MSLFMSCVGILVLLFIGFLLSENKKAINVRTIVIALITQISFGAFVMYVPLGQGILQMMSDAVNHIINFSNEGLTFVFGDLANYKVGFIFVINVLCVVIFISALISVLYYLKIMQFVINLIGGALSKLFGTSKAESMSATANIFVGPIEAPSMVRPLIKKMTRSELFAVMTGGLASVAGGTMIGYINLGIDPKYILTACFMTAPAGLLFAKLLCPQTEQEKITNEIEIDDETTPKSLLDAITDGSIMGMNQVATVTALLISFVALIALVNSLVGGIGDLISIEGLSLELIIGYILSPLAFLMGVPWSEAVTAASLIGQKIAVNEFVAYINFIEIAETLSPKTQAIVVFSLCGFANIGSLAMVIGGLGAICPNKRHILSEIGPRVLMAAILANLMSGTIAGALLSFS”, the protein production result is given as “failed”. With “MSLGAFLDKPKTEKHNAHGAGNGLRYGLSSMQGWRVEMEDAHTAVVGIPHGLEDWSFFAVYDGHAGSRVANYCSTHLLEHITTNEDFRAAGKSGSALELSVENVKNGIRTGFLKIDEYMRNFSDLRNGMDRSGSTAVGVMISPKHIYFINCGDSRAVLYRNGQVCFSTQDHKPCNPREKERIQNAGGSVMIQRVNGSLAVSRALGDYDYKCVDGKGPTEQLVSPEPEVYEILRAEEDEFIILACDGIWDVMSNEELCEYVKSRLEVSDDLENVCNWVVDTCLHKGSRDNMSIVLVCFSNEGHHHHHH” the entry was “not failed”.

On to “MSLGFVTAAYIIAALLFIMSLAGLSKHETAKAGCWYGISGMAIALFATIFGPQSYGTIWILIAMAIGGYIGIQKALKVEMTAMPELVAILHSFVGLAAVLVGFNSYGLHNDPLIPSNLDAVARANFIVEQQTLATIHYIEVFLGIFIGAVTFSGSLIAFGKLSGNLFGCKVSSVALNLPNKHKLNLAALIISGLLMMVFLNNPVNIFPVLIMTIIALALGWHLVASIGGADMPVVVSMLNSYSGWAAAAAGFMLSNDLLIVTGALVGSSGAILSYIMCKAMNRSFISVIAGGFGNEMKADSAAEQAQGEHRETTVEDVAEMLKNAHSVIITPGYGMAVAQAQYPVAEITAKLREKGINVRFGIHPVAGRLPGHMNVLLAEAKVPYDVVLEMDEINDDFENTDVVLVIGANDTVNPAALDDPSSPIAGMPVLEVWKAQNVVVFKRSMAVGYAGVQNPLFFKENTQMLFGDAKERVDDILRALN”, for which the protein production entry was “failed”. To “MSLGHGDEGITPLSSEIVNFSTTVWTDGDKDHLEKHLVENLNCIRHYPEPDAGTLRQMLAKRNSVDNNAILVTNGPTAAFYQIAQAFRGSRSLIAIPSFAEYEDACRMYEHEVCFYPSNEDIGEADFSNMDFCWLCNPNNPDGRLLQRTEILRLLNDHPDTTFVLDQSYVSFTTEEVIRPADIKGRKNLVMVYSFSHAYGIPGLRIGYIVANKDFMKRVAAFSTPWAVNALAIEAAKFILIHPAQFTLPIRKWQRNTVDFITALNRLDGVEVHPSGTTFFLLRLKKGTAAELKKYMLEEYNMLIRDASNFRGLDESYVRITTQRPAQNQLFIKALETFLEKYEGHHHHHH” belongs “not failed”.

Turning to “MSLHAAAVGPSVLPDLREQVEQIIAEARRQGASACEVAVSLEQGLSTSVRQGEVETVEFNRDQGFGITLYAGQRKGSASTSATGEAAIRETVAAALAIARHTSEDECAGLADAALMARELPELDLYHPWSLSPEQAVERALACEAAAFAADKRVTKADGTTLNTHQGCRVYGNSHGFIGGYASTRHSLSCVMIAEGEGQMQRDYWYDVNRRGEALASAESIGRRAAERAASRLGARPVQTAEVPVLFAPEIAVGLFGHFLGAISGGSLYRKSSFLEGALGQRLFPEWLSIDERPHLVGALGSASFDSDGLATYAKPFVENGELVSYVLGTYSGRKLGLPSTANAGGVHNLFVSHGDEDQAALIRRMERGLLVTELMGQGVNLVTGDYSRGAAGYWVENGEIQFPVQEVTIAANLRDLFRRIVAVGKDIERRGNLHTGSVLVESMMVAGR”, the protein production result is given as “not failed”. To “MSLHASAIESIETIIVDLPTIRPHKLAMHTMQNQTLVLIRLRCADGIEGLGESTTIGGLAYGNESPDSIKTNIDRFVAPLLIGQDASNINAAMLRLEQSIRGNTFAKSGIESALLDAQGKRLGLPVSELLGGRVRDALPVAWTLASGDTAKDIAEAQKMLDLRRHRIFKLKIGAGEVDRDLAHVIAIKKALGDSASVRVDVNQAWDEAVALRACRILGGNGIDLIEQPISRNNRAGMVRLNASSPAPIMADESIECVEDAFNLAREGAASVFALKIAKNGGPRATLRTAAIAEAAGIGLYGGTMLEGGIGTLASAHAFLTLNKLSWDTELFGPLLLTEDILAEPPVYRDFHLHVSKAPGLGLSLDEERLAFFRRDKTTPVLHHTEGHHHHHH” belongs “not failed”; to “MSLHFQILLWLSILFIIAGTILLVTMLKTKKEERKESYLGFTVIFLIFGFAILIYTFIFGIL”, “failed”. To “MSLIDLYDLRMPQRTGTYVLHEENLAIIETGPSPSVPHLLAGLKALHIDPADIRYIIVTHIHLDHAGGVGVLLEHCPNATVIVHPKGKRHLADPSRLIAGAKAVYGEQFDALFDPIVPVPEERLLVKEDGETLVLSAERTLTFYDTPGHANHHFSIYDSYSGGVFTGDTIGVFYPQLQEAGLAFCLPSTSPNQFNPEAMKQSAERLEKLNPTRIYFGHFGALDQPEEAFRQLRFWLPKFVAAGKEVIARHPEAPAAEQAKAVTKLLHNDITAFLNECSIPASSPVYKVIELDLQVCAMGIIDYWRKQRLEHHHHHH” belongs “failed”; to “MSLIPKFREFDRERHRTDYQKGMSYAEQQDFDMGFTIWFDHIEDLDLIEKDGTINRIVMMSTGLKDKNVKEIYESDIVRNLYGELYVVEWLDGSFVLTEFYNGGYDHYIIDSSTEYEVLGNIYENPELLEDDNHASNEGHHHHHH”, “not failed”. With “MSLIYAQILAGGKGTRMGNVSMPKQFLPLNGKPIIVHTVEKFILNTRFDKILISSPKEWMNHAEDNIKKYISDDRIVVIEGGEDRNETIMNGIRFVEKTYGLTDDDIIVTHDAVRPFLTHRIIEENIDAALETGAVDTVIEALDTIVESSNHEVITDIPVRDHMYQGQTPQSFNMKKVFNHYQNLTPEKKQILTDACKICLLAGDDVKLVKGEIFNIKITTPYDLKVANAIIQERIANEGHHHHHH” the entry was “not failed”; with “MSLKAIGFEQPFKLSDGNLFKTFNLDIPEPKVHEILVKIQSISVNPVDTKQRLMDVSKAPRVLGFDAIGVVESVGNEVTMFNQGDIVYYSGSPDQNGSNAEYQLINERLVAKAPKNISAEQAVSLPLTGITAYETLFDVFGISRNRNENEGKTLLIINGAGGVGSIATQIAKAYGLRVITTASRNETIEWTKKMGADIVLNHKESLLNQFKTQGIELVDYVFCTFNTDMYYDDMIQLVKPRGHIATIVAFENDQDLNALKPKSLSFSHEFMFARPLNQTDDMIKHHEYLEDITNKVEQNIYQPTTTKVIEGLTTENIYQAHQILESNTMIGKLVINLNEGHHHHHH”, “not failed”; with “MSLKARLALFFALSIGLALFFQGALSYVAFKGLLEADLDRSLLFYARALAEGRPSPRGEFAFRLAQGGAETKSPNFPDLPPLAPGRYWKEGWRVWVLEAPGGTLTVARYEPEALLALSRFRLVLFASGAALTLAFALLAGHLAGVALRPLSRLTEVARRVADSQDLSHRVPPEGGGELKTLAEAFNHMLERLEAFLEREKRFTRDAAHELRTPVAAALAQLEAAEGGYLSEGEALQATKEELLRMKRLVEALLVLAREGRVTPVPLDLAALAREEARAFGVPYRGPETLPYEGDPLLLAQALRNLLRNAFLHGEGKGVEVRLSQEGEDLVLEVKDEGPGMPEEALKEAGRPFFRASPKPGEGLGLSVAKKVAEAHGGALVLVPRKPTGLTARLLLPANPRLTGTP”, “failed”. As to “MSLKDMIDSIEQFAQTQADFPVYDCLGERRTYGQLKRDSDSIAAFIDSLALLAKSPVLVFGAQTYDMLATFVALTKSGHAYIPVDVHSAPERILAIIEIAKPSLIIAIEEFPLTIEGISLVSLSEIESAKLAEMPYERTHSVKGDDNYYIIFTSGTTGQPKGVQISHDNLLSFTNWMIEDAAFDVPKQPQMLAQPPYSFDLSVMYWAPTLALGGTLFALPKELVADFKQLFTTIAQLPVGIWTSTPSFADMAMLSDDFCQAKMPALTHFYFDGEELTVSTARKLFERFPSAKIINAYGPTEATVALSAIEITREMVDNYTRLPIGYPKPDSPTYIIDEDGKELSSGEQGEIIVTGPAVSKGYLNNPEKTAEAFFTFKGQPAYHTGDIGSLTEDNILLYGGRLDFQIKYAGYRIELEDVSQQLNQSPMVASAVAVPRYNKEHKVQNLLAYIVVKDGVKERFDRELELTKAIKASVKDHMMSYMMPSKFLYRDSLPLTPNGKIDIKTLINEVNNREGHHHHHH”, the protein production result is reported as “not failed”.
